Results reported in patent US11278600B2, “Human alpha-galactosidase variants” (Codexis, Inc., priority 2014, dated 2022).

Experiments:
Format in all cases: biochemical
[1] = HTP-analysis of supernatants pretreated with acid (MUGal hydrolysis); conditions: activity of the variant/activity of Rd3BB (SEQ ID NO: 13); challenge at pH 3.7
Outline: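 Fluorescence of MUGal hydrolysis (Ex. 355 nm, Em. 448 nm) is read after sodium carbonate quench. The enzyme source is INVSc1 yeast culture supernatant, first exposed to pH 3.3-4.3 McIlvaine buffer at 37° C. for 1-3 h, then reacted at pH 4.8 for 30-180 minutes.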

[2] = HTP-analysis of yeast culture supernatants, no challenge (MUGal hydrolysis); conditions: activity of the variant/activity of Rd3BB (SEQ ID NO: 13)
Outline: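 GLA variants were expressed in INVSc1 yeast grown in SD-Ura broth with glucose at 30° C., and culture supernatants were collected after 66-84 h. Supernatant was mixed with McIlvaine buffer pH 4.8 and MUGal (2 mM stock) in 50 mM citrate, 200 mM KCl, pH 4.6, incubated at 37° C. for 30-180 minutes, then quenched with sodium carbonate.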

[3] = HTP-analysis of supernatants pretreated with base (MUGal hydrolysis); conditions: activity of the variant/activity of Rd3BB (SEQ ID NO: 13); challenge at pH 9.7
Outline: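 Supernatants from INVSc1 yeast expressing GLA variants (SD-Ura, 66-84 h, 30° C) were mixed with McIlvaine buffer pH 7.0-8.2 or 200 mM sodium bicarbonate pH 9.1-9.7 and held 1-18 h at 37° C. Residual activity was then measured on MUGal at pH 4.8/4.3, 37° C, 30-180 min, by fluorescence (Ex 355/Em 448 nm).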

Molecule | Relative Activity of GLA Variants After Challenge at pH 3.7 [1] | Relative Activity of GLA Variants After No Challenge (NC) [2] | Relative Activity of GLA Variants After Challenge at pH 9.7 [3]
521 (protein, Synthetic Polypeptide sequence of Variant No. 521 of mature Human GLA) LDNGLARTPTMGWLHWERFMCNLDCQEEPDSCISEKLFMEMAERMVSEGWKNAGYEYLCIDDCWMAPQRDSEGRLQADPQRFPHGIRQLANHVHSKGLKLGIYADVGNKTCAGFPGSFGYYDIDAQTFADWGVDLLKFDGCYCDSLENLADGYKHMSLALNRTGRSIVYSCEWPLYMWPFQKPNYTEIRQYCNHWRNFADIDDSWASIKSILDWTSRNQERIVDVAGPGGWNDPDMLVIGNFGLSWDQQVTQMALWAIMAAPLFMSNDLRHISPQAKALLQDKDVIAINQDPLGKQGYQLRKGDNFEVWERPLSGDAWAVAIINRQEIGGPRSYTIPVASLGKGVACNPACFITQLLPVKRQLGFYNWTSRLKSHINPTGTVLLQLENTMQMSLKDLL | + (+ = 1.5 to 5 relative activity over Rd3BB (SEQ ID NO: 13)) | + (+ = 1.5 to 5 relative activity over Rd3BB (SEQ ID NO: 13)) | ++ (++ = >5 to 10 relative activity over Rd3BB (SEQ ID NO: 13))
594 (protein, Synthetic Polypeptide sequence of Variant No. 594 of mature Human GLA) LDNGLARTPTMGWLHWERFMCNLDCQEEPDSCISEKLFMEMAERMVSEGWKDAGYEYLCIDDCWMAPQRDSEGRLQADPQRFPHGIRQLANHVHEKGLKLGIYADVGNKTCAGFPGSFGYYDIDAQTFADWGVDLLKFDGCYCDSLENLADGYKHMSLALNRTGRSIVYSCEWPLYMWPFQKPNYTEIRQYCNHWRNFADIDDSWASIKSILDWTSRNQERIVDVAGPGGWNDPDMLVIGNFGLSWDQQVTQMALWAIMAAPLFMSNDLRHISPQAKALLQDKDVIAINQDPLGKQGYQLRKGDNFEVWERPLSGDAWAVAIINRQEIGGPRSYTIPVASLGKGVACNPACFITQLLPVKRQLGFYNWTSRLKSHINPTGTVLLQLENTMQMSLKDLL | + (+ = 1.5 to 5 relative activity over Rd3BB (SEQ ID NO: 13)) | + (+ = 1.5 to 5 relative activity over Rd3BB (SEQ ID NO: 13)) | ++ (++ = >5 to 10 relative activity over Rd3BB (SEQ ID NO: 13))
597 (protein, Synthetic Polypeptide sequence of Variant No. 597 of mature Human GLA) LDNGLARTPTMGWLHWERFMCNLDCQEEPDSCISEKLFMEMAERMVSEGWKDAGYEYLCIDDCWMAPQRDSEGRLQADPQRFPHGIRQLANHVHSKGLKLGIYADVGNKTCAGFPGSFGYYDIDAQTFADWGVDLLKFDGCYCDSLENLADGYKHMSLALNRTGRSIVYSCEWPLYMWPFQKPNYVEIRQYCNHWRNFADIDDSWASIKSILDWTSRNQERIVDVAGPGGWNDPDMLVIGNFGLSWDQQVTQMALWAIMAAPLFMSNDLRHISPQAKALLQDKDVIAINQDPLGKQGYQLRKGDNFEVWERPLSGDAWAVAIINRQEIGGPRSYTIPVASLGKGVACNPACFITQLLPVKRQLGFYNWTSRLKSHINPTGTVLLQLENTMQMSLKDLL | − (− = <1.5 relative activity to Rd3BB (SEQ ID NO: 13)) | + (+ = 1.5 to 5 relative activity over Rd3BB (SEQ ID NO: 13)) | + (+ = 1.5 to 5 relative activity over Rd3BB (SEQ ID NO: 13))
596 (protein, Synthetic Polypeptide sequence of Variant No. 596 of mature Human GLA) LDNGLARTPTMGWLHWERFMCNLDCQEEPDSCISEKLFMEMAERMVSEGWKDAGYEYLCIDDCWMAPQRDSEGRLQADPQRFPHGIRQLANHVHSKGLKLGIYADVGNKTCAGFPGSFGYYDIDAQTFADWGVDLLKFDGCYCDSLENLADGYKHMSLALNRTGRSIVYSCEWPLYMWPFQKPNYGEIRQYCNHWRNFADIDDSWASIKSILDWTSRNQERIVDVAGPGGWNDPDMLVIGNFGLSWDQQVTQMALWAIMAAPLFMSNDLRHISPQAKALLQDKDVIAINQDPLGKQGYQLRKGDNFEVWERPLSGDAWAVAIINRQEIGGPRSYTIPVASLGKGVACNPACFITQLLPVKRQLGFYNWTSRLKSHINPTGTVLLQLENTMQMSLKDLL | ++ (++ = >5 to 10 relative activity over Rd3BB (SEQ ID NO: 13)) | + (+ = 1.5 to 5 relative activity over Rd3BB (SEQ ID NO: 13)) | ++ (++ = >5 to 10 relative activity over Rd3BB (SEQ ID NO: 13))
599 (protein, Synthetic Polypeptide sequence of Variant No. 599 of mature Human GLA) LDNGLARTPTMGWLHWERFMCNLDCQEEPDSCISEKLFMEMAERMVSEGWKDAGYEYLCIDDCWMAPQRDSEGRLQADPQRFPHGIRQLANHVHSKGLKLGIYADVGNKTCAGFPGSFGSYDIDAQTFADWGVDLLKFDGCYCDSLENLADGYKHMSLALNRTGRSIVYSCEWPLYMWPFQKPNYTEIRQYCNHWRNFADIDDSWASIKSILDWTSRNQERIVDVAGPGGWNDPDMLVIGNFGLSWDQQVTQMALWAIMAAPLFMSNDLRHISPQAKALLQDKDVIAINQDPLGKQGYQLRKGDNFEVWERPLSGDAWAVAIINRQEIGGPRSYTIPVASLGKGVACNPACFITQLLPVKRQLGFYNWTSRLKSHINPTGTVLLQLENTMQMSLKDLL | + (+ = 1.5 to 5 relative activity over Rd3BB (SEQ ID NO: 13)) | + (+ = 1.5 to 5 relative activity over Rd3BB (SEQ ID NO: 13)) | ++ (++ = >5 to 10 relative activity over Rd3BB (SEQ ID NO: 13))
598 (protein, Synthetic Polypeptide sequence of Variant No. 598 of mature Human GLA) LDNGLARTPTMGWLHWERFMCNLDCQEEPDSCISEKLFMEMAERMVSEGWKDAGYEYLCIDDCWMAPQRDSEGRLQADPQRFPHGIRQLANHVHSKGLKLGIYADVGNKTCAGFPGSFGHYDIDAQTFADWGVDLLKFDGCYCDSLENLADGYKHMSLALNRTGRSIVYSCEWPLYMWPFQKPNYTEIRQYCNHWRNFADIDDSWASIKSILDWTSRNQERIVDVAGPGGWNDPDMLVIGNFGLSWDQQVTQMALWAIMAAPLFMSNDLRHISPQAKALLQDKDVIAINQDPLGKQGYQLRKGDNFEVWERPLSGDAWAVAIINRQEIGGPRSYTIPVASLGKGVACNPACFITQLLPVKRQLGFYNWTSRLKSHINPTGTVLLQLENTMQMSLKDLL | + (+ = 1.5 to 5 relative activity over Rd3BB (SEQ ID NO: 13)) | + (+ = 1.5 to 5 relative activity over Rd3BB (SEQ ID NO: 13)) | ++ (++ = >5 to 10 relative activity over Rd3BB (SEQ ID NO: 13))
600 (protein, Synthetic Polypeptide sequence of Variant No. 600 of mature Human GLA) LDNGLARTPTMGWLHWERFMCNLDCQEEPDSCISEKLFMEMAERMVSEGWKDAGYEYLCIDDCWMAPQRDSEGRLQADPQRFPHGIRQLANHVHSKGLKLGIYADVGNKTCAGFPGSFGSYDIDAQTFADWGVDLLKFDGCYCDSLENLADGYKHMSLALNRTGRSIVYSCEWPLYMWPFQKPNYTEIRQYCNHWRNFADIDDSWASIKSILDWTSRNQERIVDVAGPGGWNDPDMLVIGNFGLSWDQQVTQMALWAIMAAPLFMSNDLRHISPQAKALLQDKDVIAINQDPLGKQGYQLRKGDNFEVWERPLSGDAWAVAIINRQEIGGPRSYTIPVASFGKGVACNPACFITQLLPVKRQLGFYNWTSRLKSHINPTGTVLLQLENTMQMSLKDLL | +++ (+++ = >10 relative activity over Rd3BB (SEQ ID NO: 13)) | + (+ = 1.5 to 5 relative activity over Rd3BB (SEQ ID NO: 13)) | + (+ = 1.5 to 5 relative activity over Rd3BB (SEQ ID NO: 13))
595 (protein, Synthetic Polypeptide sequence of Variant No. 595 of mature Human GLA) LDNGLARTPTMGWLHWERFMCNLDCQEEPDSCISEKLFMEMAERMVSEGWKDAGYEYLCIDDCWMAPQRDSEGRLQADPQRFPHGIRQLANHVHSKGLKLGIYADVGNKTCAGFPGSFGYYDIDAQTFADWGVDLLKFDGCYCDSLENLADGYKHMSLALNRTGRSIVYSCEWPLYMWPFQKPNYAEIRQYCNHWRNFADIDDSWASIKSILDWTSRNQERIVDVAGPGGWNDPDMLVIGNFGLSWDQQVTQMALWAIMAAPLFMSNDLRHISPQAKALLQDKDVIAINQDPLGKQGYQLRKGDNFEVWERPLSGDAWAVAIINRQEIGGPRSYTIPVASLGKGVACNPACFITQLLPVKRQLGFYNWTSRLKSHINPTGTVLLQLENTMQMSLKDLL | + (+ = 1.5 to 5 relative activity over Rd3BB (SEQ ID NO: 13)) | + (+ = 1.5 to 5 relative activity over Rd3BB (SEQ ID NO: 13)) | + (+ = 1.5 to 5 relative activity over Rd3BB (SEQ ID NO: 13))
